These results are taken from the RNAGym collection of RNA variant scans (doi:10.1093/nar/gkz1192).

The chains are these.
B1: CPEB3 Ribozyme (parent)
chain: UAACAGGGGGCCACAGCAGAAGCGUUCACGUCGCAGCCCCUGUCAGAUUCUGGUGAAUCUGCGAAUUCUGCUGUAUAUCUC

In this series the parent is B1. In words: self-cleavage, relative activity (ratio to wild type); higher = more cleavage; in vitro, sequencing. An outline of the steps: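 Libraries of CPEB3 self-cleaving ribozyme mutants came from rounds of error-prone PCR and carried barcodes, which DNA sequencing matched to variants. In vitro transcription used T7 RNA polymerase at 37°C for 5 hours, with a further 15 min in DNase I before EDTA stopped the reaction; the ribozymes cleaved during both steps. The RNA was reverse transcribed with template switching and sequenced on Illumina. Relative activity is the cleaved/total read fraction of a variant divided by that of the unmutated ribozyme, averaged over three batches with at least 5 reads.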
Turning to UAACAGGGGGCCACAGCAGAAACGUUCACGUCGCAGCCCCUGGCAGAUUCUGGUGAAUCUGCGAAUUCUGCUGUAUAUCUC [G22A U43G], the self-cleavage amounted to 0.09. As to UAACAGGGGGCCACAGCAGAUGCGUUCACGUCGCAGCCCCUGUCAGAUUCUGGUGAAUCGGCGAAUUCUGCUGUAUAUCUC [A21U U60G], the self-cleavage is 0.17. The value for UAACAGGGGGCCACAGCAGAUGCGUUCACGUCGCAGCCCCUGUCAGAUUCUGGUGAAUCCGCGAAUUCUGCUGUAUAUCUC [A21U U60C] was 0.2; that for UAACAGGGGGCCACAGCAGAUGCGUUCACGUCGCAGCCCCUGUCAGAUUCUGGUGAAUCAGCGAAUUCUGCUGUAUAUCUC [A21U U60A] was 0.3. To UAACAGGGGGCCACAGCAGAUGCGUUCACGUCGCAGCCCCUGUCAGAUUCUGGUGAAUCUGCGAAUUCUGCUGUAUAUCCC [A21U U80C] belongs 0.53; to UAACAGGGGGCCACAGCAGAUGCGUUCACGUCGCAGCCCCUGUCAGAUUCUGGUGAAUCUGCGAAUUCUGCUGUAUAUCAC [A21U U80A], 0.44. The value for UAACAGGGGGCCACAGCAGAUGCGUUCACGUCGCAGCCCCUGUCAGAUUCUGGUGAAUCUGCGAAUCCUGCUGUAUAUCUC [A21U U67C] was 0.2; that for UAACAGGGGGCCACAGCAGAUGCGUUCACGUCGCAGCCCCUGUCAGAUUCUGGUGAAUCUGCGAAUACUGCUGUAUAUCUC [A21U U67A] was 0.19.

UAACAGGGGGCCACAGCAGAAACGUUCACGUCGCAGCCCCUGUCAGAAUCUGGUGAAUCUGCGAAUUCUGCUGUAUAUCUC [G22A U48A]: the self-cleavage amounted to 0.07. For the variant UAACAGGGGGCCACAGCAGAAACGUUCACGUCGCAGCCCCUGUCAGAGUCUGGUGAAUCUGCGAAUUCUGCUGUAUAUCUC [G22A U48G], the self-cleavage amounted to 0.32. In the case of UAACAGGGGGCCACAGCAGAAACGUUCACGUCGCAGCCCCUGUCAGACUCUGGUGAAUCUGCGAAUUCUGCUGUAUAUCUC [G22A U48C], the self-cleavage was found to be 0.19. The value for UAACAGGGGGCCACAGCAGAAACGUUCACGUCGCAGCUCCUGUCAGAUUCUGGUGAAUCUGCGAAUUCUGCUGUAUAUCUC [G22A C38U] was 0.17; that for UAACAGGGGGCCACAGCAGAUGCGUUCACGUCGCAGCCCCUGUCAGAUUCUGGUGAAUCUGCGAAAUCUGCUGUAUAUCUC [A21U U66A] was 1.12; that for UAACAGGGGGCCACAGCAGAUGCGUUCACGUCGCAGCCCCUGUCAGAUUCUGGUGAAUCUGCGAACUCUGCUGUAUAUCUC [A21U U66C] was 0.33. As to UAACAGGGGGCCACAGCAGAAACGUUCACGUCGCAGCCCCUGUCAGAUUCUGGUGAAUCUGCGAAUUCUGCUGUAUAUCUC [G22A], the self-cleavage was 0.29. The value for UAACAGGGGGCCACAGCAGAAACGUUCACGUCGCAGCCCCUGUCAGAUUCUGGUGAAUCUGCGAAUUCAGCUGUAUAUCUC [G22A U69A] was 0.24; that for UAACAGGGGGCCACAGCAGAAACGUUCACGUCGCAGCCCCUGUCAGAUUCUGGCGAAUCUGCGAAUUCUGCUGUAUAUCUC [G22A U54C] was 0.2.

Take UAACAGGGGGCCACAGCAGAAACGUUCACGUCGCAGCCCCUGUCAGGUUCUGGUGAAUCUGCGAAUUCUGCUGUAUAUCUC [G22A A47G]: the self-cleavage came out at 0.48. Consider UAACAGGGGGCCACAGCAGAAACGUUCACGUCGCAGCCCCUGUCAGAUUCUGGUGAAUCUGCGAAUUGUGCUGUAUAUCUC [G22A C68G], for which the self-cleavage was 0.11. For the variant UAACAGGGGGCCACAGCAGAAACGUUCACGUCGCAGCCCCUGUCAGAUUCUGGUGAAUCUGCGAAUUCUGCUGUUUAUCUC [G22A A75U], the self-cleavage is 0.37. To UAACAGGGGGCCACAGCAGAAACGUUCACGUCGCAGCCCCUGUCAGAUUCUGAUGAAUCUGCGAAUUCUGCUGUAUAUCUC [G22A G53A] belongs 0.6. To UAACAGGGGGCCACAGCAGAAACGUUCCCGUCGCAGCCCCUGUCAGAUUCUGGUGAAUCUGCGAAUUCUGCUGUAUAUCUC [G22A A28C] belongs 0.21; to UAACAGGGGGCCACAGCAGAAACGUUCUCGUCGCAGCCCCUGUCAGAUUCUGGUGAAUCUGCGAAUUCUGCUGUAUAUCUC [G22A A28U], 0.12; to UAACAGGGGGCCACAGCAGAAACGUUCGCGUCGCAGCCCCUGUCAGAUUCUGGUGAAUCUGCGAAUUCUGCUGUAUAUCUC [G22A A28G], 0.4.

On to UAACAGGGGGCCACAGCAGAAACGUUCACGUCGCAGCCCCUGUCAGAUUCUGGUGGAUCUGCGAAUUCUGCUGUAUAUCUC [G22A A56G], for which the self-cleavage came out at 0.17. The value for UAACAGGGGGCCACAGCAGAAACGUUCACGUCGCAGCCCCUGUCAGAUUCUGGUGAGUCUGCGAAUUCUGCUGUAUAUCUC [G22A A57G] was 0.35; that for UAACAGGGGGCCACAGCAGAAACGUUCACGUCGCAGCCCCUGUCAGAUUCUGGUGAAUCUGCGAUUUCUGCUGUAUAUCUC [G22A A65U] was 0.08.

Consider UAACAGGGGGCCACAGCAGAAACGUUCACGUCGCAGCCCCUGUCAGAUUCUGGUGAAUCUGCGAGUUCUGCUGUAUAUCUC [G22A A65G], for which the self-cleavage was determined as 0.23. The value for UAACAGGGGGCCACAGCAGAAACGUUCACGACGCAGCCCCUGUCAGAUUCUGGUGAAUCUGCGAAUUCUGCUGUAUAUCUC [G22A U31A] was 0.34; that for UAACAGGGGGCCACAGCAGAUGCGUUCACGUCGCAGCCCCUGUCAGAUUCUGGUGAAUCUGCGAAUUCCGCUGUAUAUCUC [A21U U69C] was 0.26; that for UAACAGGGGGCCACAGCAGAUGCGUUCACGUCGCAGCCCCUGUCAGAUUCUGGUGAAUCUGCGAAUUCUGCUGCAUAUCUC [A21U U74C] was 0.76. Consider UAACAGGGGGCCACAGCAGAUGCGUUCACGUCGCAGCCCCUGUCAGAUUCUGGUGAAUCUGCGAAUUCUGCUGAAUAUCUC [A21U U74A], for which the self-cleavage was found to be 0.76. The value for UAACAGGGGGCCACAGCAGAAACGUUCACGUCGCAGCCCCAGUCAGAUUCUGGUGAAUCUGCGAAUUCUGCUGUAUAUCUC [G22A U41A] was 0.19; that for UAACAGGGGGCCACAGCAGAAACGUUCACGUCGCAGCCCCCGUCAGAUUCUGGUGAAUCUGCGAAUUCUGCUGUAUAUCUC [G22A U41C] was 0.37.
